In patent US20210261685A1 (Alector, published 2021):

Legend:
[1] = molecular target: T1, Recombinant human MerTK human Fc Chimera protein (R&D systems, Cat #391-MR-100) (human, UniProt Q12866 26-499, limits assumed); test: competition ELISA: His-tagged ProS (20 ug/ml) binding to captured human MerTK-Fc, anti-His-HRP detection; blocked ligand ProS
T1 construct: Bought; also called recombinant human MerTK protein; MerTK-Fc
T1 sequence: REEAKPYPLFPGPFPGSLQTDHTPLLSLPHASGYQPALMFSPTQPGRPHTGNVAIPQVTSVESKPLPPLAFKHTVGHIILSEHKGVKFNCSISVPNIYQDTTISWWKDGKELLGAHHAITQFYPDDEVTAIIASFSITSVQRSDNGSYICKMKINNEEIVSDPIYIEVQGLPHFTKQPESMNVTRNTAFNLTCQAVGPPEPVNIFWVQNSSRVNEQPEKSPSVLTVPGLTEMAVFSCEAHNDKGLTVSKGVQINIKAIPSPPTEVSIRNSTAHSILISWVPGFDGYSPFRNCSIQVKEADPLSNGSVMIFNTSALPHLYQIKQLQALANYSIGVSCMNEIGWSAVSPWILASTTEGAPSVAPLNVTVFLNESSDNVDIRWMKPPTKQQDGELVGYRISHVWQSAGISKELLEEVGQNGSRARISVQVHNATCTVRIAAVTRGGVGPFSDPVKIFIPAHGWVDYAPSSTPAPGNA
Description: Rabbit anti-human IgG polyclonal antibody (Jackson ImmunoResearch, Cat #309-005-008) was captured to a high-protein binding plate at 2 μg/ml 4° C. overnight. After washing with 0.05% Tween20 in PBS three times, 5% BSA in PBS was added for 1 hour. Recombinant human MerTK human Fc Chimera protein (R&D systems, Cat #391-MR-100) was added at 2 μg/ml for 1 hour and the plates were then washed. Anti-MerTK antibodies were titrated to final concentration range of between 66.6 nM to 4 pM and then 40 μl of serially diluted antibody and 40 μl of His tag-conjugated recombinant Gas6 protein (R&D systems, Cat #885-GSB-050) at 3 μg/ml or His tag-conjugated recombinant ProS protein (R&D systems, Cat #9489-PS-100) at 20 μg/ml. After a further incubation for 1 hour, plates were washed and incubated for 1 hour with HRP-conjugated anti-6×His tag antibody (Abcam, Cat #ab1187). Plates were then washed and an HRP substrate (TMB) was used to develop the plates. After sufficient color change was observed, the reaction was stopped by adding 50 μl 2N H₂SO₄ and the OD was measured using a spectrophotometer (BioTek).

[2] = molecular target: T2, human MerTK endogenously expressed on cells (SK-MEL-5 cells; human macrophages) (human, UniProt Q12866 21-999); test: flow cytometry on SK-MEL-5 cells (endogenous human MerTK), APC anti-human kappa detection, MFI
T2 construct: also called MerTK on SK-MEL-5
T2 sequence: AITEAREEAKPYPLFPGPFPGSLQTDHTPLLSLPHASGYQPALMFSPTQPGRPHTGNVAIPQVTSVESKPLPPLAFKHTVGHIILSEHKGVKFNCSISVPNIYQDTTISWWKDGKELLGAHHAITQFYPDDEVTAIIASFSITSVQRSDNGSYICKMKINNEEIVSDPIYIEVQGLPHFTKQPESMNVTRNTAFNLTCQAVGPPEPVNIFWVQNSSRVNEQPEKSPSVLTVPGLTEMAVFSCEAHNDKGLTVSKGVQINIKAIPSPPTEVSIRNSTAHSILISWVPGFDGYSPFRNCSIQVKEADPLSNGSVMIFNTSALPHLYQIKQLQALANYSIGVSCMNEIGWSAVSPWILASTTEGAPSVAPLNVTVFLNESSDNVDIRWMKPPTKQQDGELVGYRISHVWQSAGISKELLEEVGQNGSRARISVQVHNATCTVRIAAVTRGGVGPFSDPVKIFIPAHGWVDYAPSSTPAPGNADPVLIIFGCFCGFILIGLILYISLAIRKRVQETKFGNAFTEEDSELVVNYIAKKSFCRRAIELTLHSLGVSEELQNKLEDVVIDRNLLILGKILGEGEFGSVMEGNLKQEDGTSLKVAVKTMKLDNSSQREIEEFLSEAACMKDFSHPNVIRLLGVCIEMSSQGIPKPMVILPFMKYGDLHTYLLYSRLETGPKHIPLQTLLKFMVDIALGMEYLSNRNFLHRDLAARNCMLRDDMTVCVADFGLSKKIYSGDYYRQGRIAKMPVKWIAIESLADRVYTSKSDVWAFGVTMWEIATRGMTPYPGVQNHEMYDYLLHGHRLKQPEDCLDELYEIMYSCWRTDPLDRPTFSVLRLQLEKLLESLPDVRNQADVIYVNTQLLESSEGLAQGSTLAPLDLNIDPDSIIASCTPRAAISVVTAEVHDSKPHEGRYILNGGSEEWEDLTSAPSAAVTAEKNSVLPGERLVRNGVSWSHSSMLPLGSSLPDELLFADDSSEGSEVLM
Description: To determine whether recombinant anti-human MerTK antibodies of the present disclosure bind to human MerTK endogenously expressed on SK-MEL-5 cells and to CHO cells overexpressing mouse MerTK (CHO-muMerTK OE cells), the following experiments were performed. SK-MEL-5 cells and CHO-muMerTK OE cells were plated at 40,000 cells/well. Anti-MerTK antibodies were titrated to a final concentration range of between 66.6 nM to 4 pM and then added to the cells. After 30 min on ice, cells were washed and then stained with APC-conjugated mouse anti-human Kappa antibody (Southern Biotech Cat #9230-11, Birmingham, Ala.) and a viability die (Life Technologies) in the presence of Fc block solution on ice for 30 minutes, and then washed twice with cold FACS buffer (2% FBS in PBS). Cells were fixed with 4% paraformaldehyde in PBS. Stained cells were acquired on a BD FACS Canto II cytometer and the mean fluorescence intensity (MFI) was calculated with FlowJo software and K value was calculated with Prism software. […] A lower Kd value reflects higher binding of antibody to cells.

B1: MTK-17 (antibody, human IgG1, V domains shown)
VH: QIQLVQSGPELKKPGETVKISCKASGYTFTNFGMNWVKQAPGKGLKWMGWINTYTGEPTYADDFKGRFAFSLETSASTAYLQINNLKNEDTATYFCSRGAVLRAGAMDCWGQGTSVTVSS
VL: DIQMTQSSSYLSVSLGGRVTITCKASDHINNWLAWYQQKPGNAPRLLISGATSLETGVPSRFSGSGSGKDYTLSITSLQTEDVATYYCQQYWSTPRTFGGGTKLEIK
In the case of B1, the “IC50 (read off the curve)” value [1] is reported as 5 to 8 nM.

B2: MTK-18 (antibody, human IgG1, V domains shown)
VH: QIQLVQSGPELKKPGETVKISCKASGYTFTHYGMTWVKQAPGKGLKWMGWINTYTGEPTYADDFKGRFAFSLETSASTAYLQINNLKNEDTATYFCARGGGQLGLRPLDYWGQGTTLTVSS
VL: DIQMTQTTSSLSASLGDRVTFSCRASQAISNYLNWYQQKPDGTVKLLIYYTSRLHSGVPSRFSGSGSGTDYSLTISNLEQEDIATYFCQQGNTLPWTFGGGTKLEIK
In the case of B2, the “IC50 (read off the curve)” value [1] is reported as roughly 5 nM.

B3: MTK-03 (antibody, human IgG1, V domains shown)
VH: DVQLQESGPGLVKPSQSLSLTCSVTGYSITSGYYWNWIRQFPGNTLEWMGYMSFDGDNKFNPSLKNRISITRDTSKNQFFLRLNSVTTEDTATYYCARGGYNYGSTEANWGQGTLVTVSA
VL: QIVLTQSPAIMSAFPGEKVTITCSASSSVNYMHWFQQKPGTSPKLWIYSTSNLASGVPARFSGSGSGTSYSLTISRMEAEDAATYYCQQRSSYPFTFGSGTKLEIK
With B3 the “IC50 (read off the curve)” value [1] was roughly 4 nM.

B4: MTK-07 (antibody, human IgG1, V domains shown)
VH: DVQLQESGPGLVKPSQSLSLTCSVTGYSITSGYYWNWIRQFPGNTLEWMGYMSFDGDNKFNPSLKNRISITRDTSKNQFFLRLNSVTTEDTATYYCARGGYNYGSTEANWGQGTLVTVST
VL: QIVLTQSPAIMSAFPGEKVTITCSASSSVTYMHWFQQKPGTSPKLWIFSTSNLASGVPARFSGSGSGTSYSLTISRMEAEDAATYYCQQRSSYPFTFGSGTKLEIK
In the case of B4, the “IC50 (read off the curve)” value [1] is reported as roughly 3 nM.

B5: MTK-15 (antibody, human IgG1, V domains shown)
VH: QIQLVQSGPELKKPGETVKISCKASGYTFTNYGVHWVKQAPGKGLKWMGWINTYTGEPTYADDFKGRFAFSLETSASTAYLQINNLKNEDMATYFCARGNRYAYMDYWGQGTSVTVSS
VL: QIVLSQSPAILSASPGEKVTMTCRASSSVSYMHWYQQKSGSSPKPWIYATSNLASGVPARFSGSGSGTSYSLTISRVEAEDAATYYCQQWSSNPRTFGGGTKLEIK
For B5, the “EC50 (read off the curve)” value [2] was roughly 0.2 nM.

B6: MTK-16 (antibody, human IgG1, V domains shown)
VH: LIQLVQSGPELKKPGETVKISCKASGYTFTNHGMNWVKQDPGKGLKWMGWINTYTGEPTYADDFKGRFVFSMETSASAAFLQINNLKNEDTATYFCARKGVTAARYFDYWGQGTTLTVSS
VL: DIVMTQSPKFMSTSVGDRVSITCKASQNVRTAVAWYKKKPGQSPKALINLASNRHTGVPDRFTGSGSGTDFTLTISNVQSEDLADYFCLQHWNYPLTFGGGTKLEIK
In the case of B6, the “EC50 (read off the curve)” value [2] is reported as roughly 2 nM.

B7: MTK-06 (antibody, human IgG1, V domains shown)
VH: QIQLVQSGPELKKPGETVKISCKASGYTFTNYGMNWVKQAPGKGLKWMGWINTNTGEPTYAEEFKGRFAFSLETSASTAYLQINNLKNEDTATYFCARYYNYWYFDVWGAGTTVTVSS
VL: QIVLSQSPAILSASPGEKVTMTCRASSSVSYMHWYQQKPGSSPKPWIYATSNLASGVPARFSGSGSGTSYSLTISRVEAEDAATYYCQQWSSKPPTFGGGTKLEIK
With B7 the “EC50 (read off the curve)” value [2] was roughly 0.2 nM.

B8: MTK-10 (antibody, human IgG1, V domains shown)
VH: QVTLKESGPGILQPSQTLSLTCSFSGFSLTTSGMGVGWIRQPSGKGLEWLAHIWSDDDKRSNPALKSRLTISQDSSTNQVFLKIASVDTADSATYYCSHLTPVREFAYWGPGTLVTVSE
VL: DIQMTQTTSSLSASLGDRVTISCSASQGISNYLNWFQQKPDGTVKLLIYYTSRLHSGVPSRFSGSGSGTDFSLTISNLEPEDIATYYCQQYTKLPYTFGGGTKLEIK
B8 was tested, and the “EC50 (read off the curve)” value [2] was roughly 0.3 nM.

B9: MTK-13 (antibody, human IgG1, V domains shown)
VH: DVQLQESGPGLVKPSQSLSLTCSVTGYSITSGYYWNWIRQFPGNKLEWMGNIDYDGSNKYNPSLKNRISITRDTSKNHFFLKLNSVTPEDTATYFCARDGGNYRSFAYWGQGTLVTVSA
VL: QIVLTQSPPIMSASPGEKVTITCSASSSVSYMYWFQQKPGTSPKLWIYSTFNLASGVPARFSGSGSGTSYSLTISRMEAEDVATYYCQQRSSYPFTFGSGTKLEIK
With B9 the “EC50 (read off the curve)” value [2] was roughly 0.6 nM.
